{"source": "paper PMC10824877", "about": "“Assessment of bioactive peptides derived from laminin-111 as prospective breast cancer-targeting agents” (Amino Acids, 2024)", "key": {"[1]": {"assay": "Radiochemical stability in serum", "assay_type": "in vitro ADME", "conditions": "37 °C, up to 24 h", "procedure": "(§1) The radiochemical stability of the radiopeptides was evaluated in two distinct environments: in saline (n = 3), at room temperature and under refrigeration (4–8 °C), by a period of 48 h after the radiolabeling, and in serum (n = 5), at 37 °C, for up to 24 h after incubation. At predefined time intervals, aliquots were extracted and subjected to ascending chromatography, as previously detailed."}, "[2]": {"assay": "Radiochemical stability in saline", "assay_type": "physicochemical", "procedure": "as §1"}}, "note": "“Also recorded” adds a separate entry of the source. No end group written: not given here. *: point of attachment. 131I = iodine-131 radiolabel on tyrosine, [131I]*", "data": [{"substance": "[^131I]I-KAFDITYVRLKF: laminin-111 γ1 chain C16 peptide KAFDITYVRLKF radiolabeled with iodine-131 at the central tyrosine residue (KAFDITY(131I)VRLKF)", "values": [{"measurement": "radiochemical stability in serum", "setting": "[1]", "result": "unstable; also recorded: radiochemical instability within the first hour"}, {"measurement": "decrease of radiochemical purity", "setting": "[2]; after 24 h, room temperature or under refrigeration", "result": "approximately 50%"}, {"measurement": "radiochemical purity remaining", "setting": "[2]; both storage conditions, within the specified time interval", "result": "around 50%"}]}]}
